In patent US8497072:

What was measured:
[1] = molecular target: endogenous Aβ(1-42) in human CSF (human); assay: IP from CSF of AD patients (n=2), ratio of recovered Aβ42 to Aβ40
[2] = molecular target: endogenous Aβ(1-42) in human CSF (human); assay: IP from CSF of AD patients (n=2) with antibody-Sepharose, Aβ42 sandwich ELISA of eluate
[3] = molecular target: endogenous Aβ(1-42) in human CSF (human); assay: IP from CSF of MCI patients (n=4) with antibody-Sepharose, Aβ42 sandwich ELISA of eluate
Aβ(1-42) fibrils (human) = Aβ(1-42) fibrils (human) (UniProt P05067); assay: co-sedimentation with Aβ(1-42) fibrils, SDS-PAGE, densitometry of heavy chain in pellet and supernatant
Sequence of Aβ(1-42) fibrils (human) (P05067 672-713 limits assumed): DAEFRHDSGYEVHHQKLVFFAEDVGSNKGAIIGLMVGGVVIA

[4] = molecular target: endogenous Aβ(1-40) in human CSF (human); assay: IP from CSF of MCI patients (n=4) with antibody-Sepharose, Aβ40 sandwich ELISA of eluate
Sequence of endogenous Aβ(1-40) in human CSF (human) (peptide, as listed by the source): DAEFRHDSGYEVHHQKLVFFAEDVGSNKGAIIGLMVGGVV

[5] = molecular target: endogenous Aβ(1-40) in human CSF (human); assay: IP from AD patient CSF with antibody on anti-mouse IgG Dynabeads, 8 M urea-PAGE and Western blot (82E1)
[6] = molecular target: endogenous Aβ(1-42) in human CSF (human); assay: as above
[7] = molecular target: endogenous Aβ(1-42) in human CSF (human); assay: IP from CSF of MCI patients (n=4), ratio of recovered Aβ42 to Aβ40
[8] = molecular target: endogenous Aβ(1-40) in human CSF (human); assay: IP from CSF of AD patients (n=2) with antibody-Sepharose, Aβ40 sandwich ELISA of eluate
[9] = molecular target: endogenous Aβ(1-42) in human CSF (human); assay: IP from AD patient CSF, urea-PAGE Western blot, share of Aβ42 in recovered Aβ40+42
Aβ(1-40) monomer (human) = assay: dot blot, 10 pmol antigen on nitrocellulose, 0.2 µg/ml antibody, densitometry
[10] = molecular target: Aβ1-42 monomer (dot blot) (human); assay: as above
Sequence of Aβ1-42 monomer (dot blot) (human) (peptide, as listed by the source): as the sequence (P05067 672-713 limits assumed) above

Sequence of endogenous Aβ(1-42) in human CSF (human) (peptide, as listed by the source): as the sequence (P05067 672-713 limits assumed) above

Row | Aβ42/40 [1] | Aβ(1-42) recovered after immunoprecipitation [2] | Aβ(1-42) recovered after immunoprecipitation [3] | Fibril bound Ab fraction (Aβ(1-42) fibrils (human)) | Aβ(1-40) recovered after immunoprecipitation [4] | Aβ40 urea-PAGE after immunoprecipitation [5] | Aβ42 urea-PAGE after immunoprecipitation [6] | Aβ42/40 [7] | Aβ(1-40) recovered after immunoprecipitation [8] | Ratio Aβ42/Aβ40+42 × 100% [9] | Reflective Density (RD) [10 pmol] (Aβ(1-40) monomer (human)) | Reflective Density (RD) [10 pmol] [10] | Substance
1 | 20.6% | 1450 | 2040 | 98% | 8280 | 4390 pg/mL | 202 pg/mL | 17.4% | 5610 | 4.4% | – | – | mMAb 6E10 (Signet Inc. Cat.# 9320) (antibody)
2 | – | – | – | – | – | – | – | – | – | – | 0.7 RD | 3.1 RD | mMAb 4G8 (Signet Inc. Cat# 9220) (antibody)
